Data on two molecules can be found in US6897044 (Biogen, dated 2005).

For assay [1], the target named is T1, CD20 antigen (human, UniProt P11836 1-297).
T1 construct: whole, on cells; Carried by the cell lines SKW and SB (CD20+/CD23+) and DHL-4 (CD20+/CD23-); also called human CD20
T1 sequence (looked up): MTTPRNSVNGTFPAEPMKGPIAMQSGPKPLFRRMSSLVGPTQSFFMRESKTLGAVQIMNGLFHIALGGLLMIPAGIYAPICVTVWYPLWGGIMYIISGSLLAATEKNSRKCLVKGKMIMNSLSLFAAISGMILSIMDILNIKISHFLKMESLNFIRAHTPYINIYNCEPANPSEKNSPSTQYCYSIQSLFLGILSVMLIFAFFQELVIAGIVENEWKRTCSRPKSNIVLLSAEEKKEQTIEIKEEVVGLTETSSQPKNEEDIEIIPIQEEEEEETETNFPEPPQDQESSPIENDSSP
Put plainly: competitive binding on SKW cells against murine 2B8, flow cytometry with FITC anti-human IgG (by the method, 2B8 was serially diluted and C2B8 fixed at 1 µg/ml). On the procedure:
(§1) Binding of monomer and dimerized antibody to various cells was evaluated by indirect immunostaining using FITC anti-human IgG and analyzed using flow cytometry (indirect IF). Cells (2×10^6 viable cells in 0.1 ml cmfPB S/2% Fetal Calf Serum/0.1% Sodium Azide, PBS/FCS buffer) were incubated for one hour on ice with 0.1 ml of 5 fold serially diluted antibody. Cells were twice washed by centrifugation (200×g) using 2 ml PBS/wash and suspended in 0.2 ml FITC conjugated Goat (Fab')_2 anti-human IgG (Jackson Immunoresearch #30869, 5 µg/ml in PBSIFCS buffer). After 30-min. incubation on ice, cells were again washed in PBS and suspended in 0.2 ml 0.5% freshly diluted formaldehyde, capped and stored at 4° C. until analysis. The amount of cell bound antibody was determined by flow cytometry (FACScan, Becton-Dickenson, Mountain View, Calif.).
(§2) The binding affinity of the C2B8 homodimer and monomer for the CD20 antigen was compared using a competitive binding assay (FIG. 10). SKW cells were first incubated for 30 minutes on ice with various amounts of 5-fold serially diluted murine (anti-CD20) MAb 2B8, and by 0.1 ml (at 1 µg/ml) of either C2B8 monomer or homodimer. Indirect IF, as described for FIG. 9, evaluated the amount of C2B8 binding. […]
For orientation: Flow cytometry measures light scatter and fluorescence of single cells or particles in a stream.

Assay [2] concerns the target T1, CD20 antigen. Put plainly: competitive binding on SKW cells against murine 2B8, flow cytometry with FITC anti-human IgG (by the method, 2B8 was serially diluted and homodimer fixed at 1 µg/ml). As for the experimental part: as §1, §2

The term IC50 denotes the concentration at which inhibition is half-maximal. Read a high IC50 as a need for much substance.

B1: C2B8, mouse/human chimeric monoclonal antibody specific for CD20 (150 kDa IgG monomer) (antibody, V domains shown)
VH: QVQLQQPGAELVKPGASVKMSCKASGYTFTSYNMHWVKQTPGRGLEWIGAIYPGNGDTSYNQKFKGKATLTADKSSSTAYMQLSSLTSEDSAVYYCARSTYYGGDWYFNVWGAGTTVTVSA
VL: QIVLSQSPAILSASPGEKVTMTCRASSSVSYIHWFQQKPGSSPKRWIYATSNLASGVPVRFSGSGSGTSYSLTISRVEAEDAATYYCQQWTSNPPTFGGGAKLEIKR
notes: also called C2B8 monomer; chimeric C2B8
As to B1, in assay [1], the half-maximal inhibitory concentration (IC50) was determined as 9.8 µg/mL.

B2: C2B8 (-s-s-) homodimer, disulfide linked IgG/IgG homodimer of C2B8/SH (300 kDa, tetravalent) (antibody, V domains shown)
VH: B1 VH
VL: B1 VL
modifications: engineered cysteine near the carboxyl terminus of the gamma 1 chain (printed as position 444 and as position 445) joins the two IgG molecules by an intermolecular disulfide bond
notes: also called C2B8 (disulfide linked) homodimer; C2B8 homodimer
The molecule B2 displayed an IC50 in assay [2] of 10.4 µg/mL.
